Tests used:
human TIGIT-mFc [1] = molecular target: T1, human TIGIT-mFc (human, UniProt Q495A1 22-141, limits assumed); test: ELISA, TIGIT-mFc captured on goat anti-mouse IgG Fc
T1 construct: the whole entry NP_776160.2 is named; also called antigen TIGIT-mFc; not shown: Fc protein fragment of a mouse IgG (mFc)
T1 sequence (looked up): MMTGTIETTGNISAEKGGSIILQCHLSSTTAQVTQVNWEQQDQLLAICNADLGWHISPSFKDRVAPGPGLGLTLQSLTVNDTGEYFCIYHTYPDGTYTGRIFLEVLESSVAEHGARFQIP
Protocol: (§1) Experimental steps: a microplate was coated with goat anti-mouse IgG Fc at 2 μg/mL, and incubated at 4° C. for 16 h. After incubation, the microplate coated with goat anti-mouse IgG Fc was washed once with PBST, and then blocked with a PBST solution containing 1% BSA as a microplate blocking solution for 2 h. After blocking, the microplate was washed 3 times with PBST. Then, 1 μg/mL antigen human TIGIT-mFc was added, and the plate was incubated at 37° C. for 30 min and then washed 3 times with PBST. The antibodies serially diluted with the PBST solution were added to the wells of the microplate. The microplate containing the test antibodies was incubated at 37° C. for 30 min, and then washed 3 times with PBST. After washing, HRP-labeled goat anti-human IgG Fc secondary antibody working solution diluted in a ratio of 1:5000 was added, and the microplate was incubated at 37° C. for 30 min. After incubation, the plate was washed 4 times with PBST, TMB (Neogen, 308177) was added for chromogenesis in the dark for 4 min, and then a stop solution was added to terminate the chromogenic reaction. The microplate was put into a microplate reader immediately, and the OD value of each well in the microplate was read at 450 nm. The data were analyzed and processed by SoftMax Pro 6.2.1.

[2] = molecular target: T2, 293T-TIGIT cell membrane surface antigen TIGIT (human, UniProt Q495A1 22-244); test: FACS competition vs CD155 (10 nM) on 293T-TIGIT cells
T2 construct: whole, on cells; also called cell membrane surface TIGIT
T2 sequence (looked up): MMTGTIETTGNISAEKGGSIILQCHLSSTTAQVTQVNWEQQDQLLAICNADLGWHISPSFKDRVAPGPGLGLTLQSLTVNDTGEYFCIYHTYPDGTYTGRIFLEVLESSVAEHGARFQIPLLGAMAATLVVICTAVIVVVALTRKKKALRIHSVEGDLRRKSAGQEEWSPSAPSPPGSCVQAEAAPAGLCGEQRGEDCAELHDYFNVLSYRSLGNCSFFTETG
Protocol: (§2) The cells were diluted, 300 thousand cells were added to each well of a transparent V-bottomed 96-well plate, and 200 μL of 1% PBSA was added to each tube. The mixtures were centrifuged for 5 min, and the supernatants were discarded. […] The plate was incubated on ice for 30 min. […] 200 μL of 1% PBSA was then added to each tube. The mixtures were centrifuged for 5 […], and the supernatants were discarded. The plate was washed twice. APC goat anti-mouse IgG (minimal x-reactivity) antibody (diluted 300-fold with PBSA) was added to each sample, and the mixtures were incubated on ice in the dark for 40 min. 200 μL of PBSA was added to each tube. The mixtures were centrifuged for 5 min, and the supernatants were discarded. The cells were resuspended by adding 200 μL of PBSA, and the suspensions were transferred into flow cytometry tubes to measure the mean fluorescence intensity of the cells at each concentration by a flow cytometer.

human TIGIT-mFc [3] = molecular target: T1, human TIGIT-mFc; test: BLI (Fortebio), TIGIT-mFc on AMC sensor, Ab 0.06-5 nM, 37 C, 1:1 fit
Protocol: The sample dilution buffer was PBS (0.02% Tween-20, 0.1% BSA, pH 7.4). TIGIT-mFc was immobilized on an AMC sensor at a concentration of 3 μg/mL for 50 s, and the sensor was equilibrated in the buffer for 60 s. The TIGIT-mFc immobilized on the sensor was allowed to bind to antibody at concentrations of 0.06-5 nM (three-fold dilutions) for 120 s, and the protein was dissociated in the buffer for 300 s. The sensor was regenerated with 10 mM glycine solution (pH=1.7). The detection temperature was 37° C., the detection frequency was 0.3 Hz, and the sample plate shaking rate was 1000 rpm. The data were analyzed by 1:1 model fitting to obtain affinity constants.

[4] = molecular target: T2, 293T-TIGIT cell membrane surface …; test: FACS on 293T-TIGIT cells
Protocol: The cells were diluted, 300 thousand cells were added to each well of a transparent V-bottomed 96-well plate, and 200 μL of 1% PBSA was added to each tube. The mixtures were centrifuged for 5 min, and the supernatants were discarded. […] The mixtures were centrifuged for 5 min, and the supernatants were discarded. The plate was washed twice. […] 200 μL of PBSA was added to each tube. The mixtures were centrifuged for 5 min, and the supernatants were discarded. The cells were resuspended by adding 200 μL of PBSA, and the suspensions were transferred into flow cytometry tubes to measure the mean fluorescence intensity of the cells at each concentration by a flow cytometer.

[5] = molecular target: T2, 293T-TIGIT cell membrane surface …; test: FACS competition vs CD112 (30 nM) on 293T-TIGIT cells
Protocol: as §2

human TIGIT-mFc [6] = molecular target: T1, human TIGIT-mFc; test: competition ELISA vs CD155-hFc-Biotin (1 ug/mL), coated TIGIT-mFc
Protocol: (§3) Experimental steps: a microplate was coated with TIGIT-mFc at 2 μg/mL, and incubated at 4° C. overnight. After incubation, the antigen-coated microplate was rinsed once with PBST, and then blocked with a PBST solution containing 1% BSA as a microplate blocking solution for 2 h. After blocking, the microplate was washed 3 times with PBST. The antibodies serially diluted with the PBST solution was added to the microplate. […] The microplate was incubated at 37° C. for 30 min, and then washed 3 times with PBST. After washing, SA-HRP working solution diluted in a ratio of 1:4000 was added, and the microplate was incubated at 37° C. for 30 min. After incubation, the plate was washed 4 times with PBST, TMB (Neogen, 308177) was added for chromogenesis in the dark for 5 min, and then a stop solution was added to terminate the chromogenic reaction. The microplate was put into a microplate reader immediately, and the OD value of each well in the microplate was read at 450 nm. The data were analyzed and processed by SoftMax Pro 6.2.1.

human TIGIT-mFc [7] = molecular target: T1, human TIGIT-mFc; test: ELISA, TIGIT-mFc captured on goat anti-mouse IgG Fc; remark: listed apart in the source
Protocol: as §1

human TIGIT-mFc [8] = molecular target: T1, human TIGIT-mFc; test: competition ELISA vs CD155-hFc-Biotin (1 ug/mL), coated TIGIT-mFc; remark: listed apart in the source
Protocol: as §3

human TIGIT-mFc [9] = molecular target: T1, human TIGIT-mFc; test: indirect ELISA screening with human TIGIT-mFc as antigen

B1: RG6058 (antibody, V domains shown)
VH: EVQLQQSGPGLVKPSQTLSLTCAISGDSVSSNSAAWNWIRQSPSRGLEWLGKTYYRFKWYSDYAVSVKGRITINPDTSKNQFSLQLNSVTPEDTAVFYCTRESTTYDLLAGPFDYWGQGTLVTVSS
VL: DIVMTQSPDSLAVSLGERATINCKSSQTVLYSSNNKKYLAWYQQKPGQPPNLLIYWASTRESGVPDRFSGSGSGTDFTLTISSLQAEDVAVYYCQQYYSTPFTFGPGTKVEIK
Question: What does the source list for B1?
Answer: EC50 (human TIGIT-mFc [1]): 0.039 nM; EC50 [2]: 1.21 nM; Kd (human TIGIT-mFc [3]): 0.0316 nM; Maximum signal height of analyte (human TIGIT-mFc [3]): 0.16 nm; S E (kdis) (human TIGIT-mFc [3]): 3.46e-05 s⁻¹; S E (kon) (human TIGIT-mFc [3]): 184000 M⁻¹ s⁻¹; koff (human TIGIT-mFc [3]): 0.000144 s⁻¹; kon (human TIGIT-mFc [3]): 4.56e+06 M⁻¹ s⁻¹; EC50 [4]: 1.26 nM; EC50 [5]: 1.22 nM; EC50 (human TIGIT-mFc [6]): 0.254 nM; EC50 (human TIGIT-mFc [7]): 0.036 nM; EC50 (human TIGIT-mFc [8]): 0.236 nM

B2: 26B12 (antibody, V domains shown)
VH: EVQLQESGPGLVKPSQSLSLTCTVTGHSFTSDYAWNWIRQFPGNRLEWMGYISYSDSTNYNPSLKSRISITRDTSKNQFFLQMNSVTTEDTATYYCARLDYGNYGGAMDYWGQGTSVTVSS
VL: DIVLTQSHEFMSTSLRDRVSITCKSSQHVSTAVAWYQQKPGQSPKLLIYSASYRYTGVPDRFTGSGSGTDFTFTISSVKAEDLAVYYCQQHYITPWTFGGGTKLEIK
notes: Murine hybridoma antibody; also called monoclonal antibody secreted by hybridoma cell line LT019
Question: Does B2 bind (human TIGIT-mFc [9])?
Answer: binds

— patent US20240002504A1 (AKESO BIOPHARMA, published 2024)
